This is an account of results in article PMC5986196, “Arrest of trans-SNARE zippering uncovers loosely and tightly docked intermediates in membrane fusion” (The Journal of Biological Chemistry, 2018).

This assay deals with T1, syntaxin 1a (syx(183–288)) (Rattus norvegicus, UniProt P32851 183-288).
T1 construct: also called N-terminally truncated variant of syntaxin; source: in n-octyl β-D-glucopyranoside
As to the kind of experiment: co-purification by ion exchange chromatography (Mono Q); purified monomers mixed overnight at 4 °C, complex purified the next day on a Mono Q column. The following applies: both partners purified.

T1 sequence (P32851 183-288): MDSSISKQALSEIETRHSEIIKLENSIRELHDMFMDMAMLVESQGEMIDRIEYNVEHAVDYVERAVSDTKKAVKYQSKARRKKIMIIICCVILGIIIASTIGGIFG

B1: syb(49–96), C-terminal fragment of synaptobrevin (domain or fragment, Rattus norvegicus, UniProt P63045 49-96, looked up)
chain: NVDKVLERDQKLSELDDRADALQAGASQFETSAAKLKRKYWWKNLKMM
notes: synaptobrevin 2 (syb), Rattus norvegicus, residues 49–96; also called synaptobrevin(49–96)
On to B1, for which the binding result is listed as “binds”.
